Test results taken from PMC13389011.
pKd, pKi: −log10 of the molar value. “And” between values parts separate entries of the source, which are not always exact repeats. Equal entries are not always repeated.

How the values were obtained:
[1] = system: Human insulin receptor ectodomain (HIR) (Homo sapiens), P06213-2+P06213-2; experiment: MST; conditions: DNA backbone, PBS (1.5 mM KH2PO4, 8.1 mM Na2HPO4, 2.7 mM KCl, 137 mM NaCl) with 5 mM MgCl2, pH 7.4, MST with 0.1% Pluronic F-127 at 25 C, FNBA at room temperature, high values mean tight binding
Sequence of Human insulin receptor ectodomain (HIR) (Homo sapiens), P06213-2+P06213-2 (P06213 other isoform, or with tags, fused parts or gaps, chain 1 of 2): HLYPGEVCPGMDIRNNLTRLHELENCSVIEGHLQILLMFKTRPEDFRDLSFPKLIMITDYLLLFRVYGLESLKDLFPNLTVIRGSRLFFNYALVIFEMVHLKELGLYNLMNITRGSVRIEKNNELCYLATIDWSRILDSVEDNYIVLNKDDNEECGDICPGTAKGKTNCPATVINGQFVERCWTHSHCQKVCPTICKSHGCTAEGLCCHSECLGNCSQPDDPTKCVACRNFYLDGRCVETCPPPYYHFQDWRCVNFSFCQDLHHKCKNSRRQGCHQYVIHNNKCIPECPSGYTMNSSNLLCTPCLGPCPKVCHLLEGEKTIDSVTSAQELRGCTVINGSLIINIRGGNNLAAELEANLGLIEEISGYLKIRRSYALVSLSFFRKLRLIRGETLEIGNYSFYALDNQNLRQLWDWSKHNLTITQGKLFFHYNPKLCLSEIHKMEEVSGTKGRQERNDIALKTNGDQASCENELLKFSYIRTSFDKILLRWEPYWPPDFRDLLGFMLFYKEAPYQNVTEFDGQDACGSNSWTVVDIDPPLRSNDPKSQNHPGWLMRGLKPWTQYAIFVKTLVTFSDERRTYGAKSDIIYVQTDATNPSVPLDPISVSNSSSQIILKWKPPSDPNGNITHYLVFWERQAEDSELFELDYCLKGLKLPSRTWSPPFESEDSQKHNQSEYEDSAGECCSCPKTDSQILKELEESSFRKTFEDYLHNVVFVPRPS
Sequence of Human insulin receptor ectodomain (HIR) (Homo sapiens), P06213-2+P06213-2 (P06213 763-956, chain 2 of 2): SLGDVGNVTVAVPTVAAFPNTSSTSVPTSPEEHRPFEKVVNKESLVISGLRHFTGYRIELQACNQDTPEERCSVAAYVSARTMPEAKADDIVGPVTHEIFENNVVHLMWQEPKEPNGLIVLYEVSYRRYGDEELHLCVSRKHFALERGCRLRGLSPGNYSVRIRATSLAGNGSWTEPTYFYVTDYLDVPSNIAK

[2] = system: Human insulin receptor ectodomain (HIR) (Homo sapiens), P06213-2+P06213-2; experiment: ELONA; conditions: DNA backbone, PBS (1.5 mM KH2PO4, 8.1 mM Na2HPO4, 2.7 mM KCl, 137 mM NaCl) with 5 mM MgCl2, pH 7.4, MST with 0.1% Pluronic F-127 at 25 C, FNBA at room temperature, high values mean tight binding
[3] = biological target: Dog insulin receptor ectodomain (DIR) (dog) (UniProt A0A8I3PWD4); experiment: MST; conditions: phenyl-dU (rigid) and indole-dA (flexible) after nt 20; IB: PBS (1.5 mM KH2PO4, 8.1 mM Na2HPO4, 2.7 mM KCl, 137 mM NaCl) + 5 mM MgCl2, pH 7.4; MST +0.1% Pluronic F-127, 25 C; SPR 25 C; FNBA and BLI r.t.
[4] = biological target: Insulin (Homo sapiens) (UniProt P01308); experiment: radioligand binding; conditions: cited from earlier work
Sequence of Insulin (Homo sapiens) (P01308 90-110): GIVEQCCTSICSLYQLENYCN

[5] = system: Human insulin receptor ectodomain (HIR) (Homo sapiens), P06213-2; experiment: BLI; conditions: after primer nt 1-20 every U = rigidly linked phenyl-dU and every A = flexibly linked indole-dA (nucleotides 1,2); DNA backbone; IB: PBS (1.5 mM KH2PO4, 8.1 mM Na2HPO4, 2.7 mM KCl, 137 mM NaCl) + 5 mM MgCl2, pH 7.4; MST +0.1% Pluronic F-127, 25 C; SPR 25 C; FNBA and BLI r.t.
Sequence of Human insulin receptor ectodomain (HIR) (Homo sapiens), P06213-2 (P06213 other isoform, or with tags, fused parts or gaps): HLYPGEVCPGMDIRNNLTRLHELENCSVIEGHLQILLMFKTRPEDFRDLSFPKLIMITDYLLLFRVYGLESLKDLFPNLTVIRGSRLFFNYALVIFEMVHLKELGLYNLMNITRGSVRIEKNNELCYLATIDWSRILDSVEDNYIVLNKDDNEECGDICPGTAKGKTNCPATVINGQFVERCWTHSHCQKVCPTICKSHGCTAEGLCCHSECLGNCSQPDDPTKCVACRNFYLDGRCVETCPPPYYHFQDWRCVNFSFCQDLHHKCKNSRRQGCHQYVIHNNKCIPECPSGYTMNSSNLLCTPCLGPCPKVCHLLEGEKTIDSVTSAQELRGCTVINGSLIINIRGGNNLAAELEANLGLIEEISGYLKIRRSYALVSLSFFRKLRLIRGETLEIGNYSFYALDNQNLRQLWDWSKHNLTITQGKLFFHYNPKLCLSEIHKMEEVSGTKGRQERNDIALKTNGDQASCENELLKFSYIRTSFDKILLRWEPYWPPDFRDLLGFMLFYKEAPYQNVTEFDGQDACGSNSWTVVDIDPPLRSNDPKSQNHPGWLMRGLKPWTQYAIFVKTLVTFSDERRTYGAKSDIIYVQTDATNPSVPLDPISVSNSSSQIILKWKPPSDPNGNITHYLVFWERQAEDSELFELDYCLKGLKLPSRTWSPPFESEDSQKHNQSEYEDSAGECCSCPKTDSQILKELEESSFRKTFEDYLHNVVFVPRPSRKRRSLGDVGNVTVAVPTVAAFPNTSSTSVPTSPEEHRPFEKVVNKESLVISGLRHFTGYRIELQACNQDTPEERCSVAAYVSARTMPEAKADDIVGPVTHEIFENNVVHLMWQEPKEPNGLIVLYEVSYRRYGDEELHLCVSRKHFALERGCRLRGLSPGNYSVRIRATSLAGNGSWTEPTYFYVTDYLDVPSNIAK

[6] = system: Human insulin receptor ectodomain (HIR) (Homo sapiens), P06213-2; experiment: SPR; conditions: after primer nt 1-20 every U = rigidly linked phenyl-dU and every A = flexibly linked indole-dA (nucleotides 1,2); DNA backbone; IB: PBS (1.5 mM KH2PO4, 8.1 mM Na2HPO4, 2.7 mM KCl, 137 mM NaCl) + 5 mM MgCl2, pH 7.4; MST +0.1% Pluronic F-127, 25 C; SPR 25 C; FNBA and BLI r.t.
[7] = biological target: T1, Dog insulin receptor ectodomain (DIR) (dog) (UniProt A0A8I3PWD4+A0A8I3PWD4); experiment: MST; conditions: DNA backbone; 7-deaza-7-(indolyl-ethyl)-dA (dAAIn) at 27,28,32,33,35,39,48,51; 5-(phenyl-ethynyl)-dU (dUEPh) at 24,25,26,31,40,42,44,46,49,52,54; PBS (1.5 mM KH2PO4, 8.1 mM Na2HPO4, 2.7 mM KCl, 137 mM NaCl) with 5 mM MgCl2, pH 7.4; MST with 0.1% Pluronic F-127 at 25 C; FNBA at room temperature; high values mean tight binding
T1 sequence (chain, as listed by the source, chain 1 of 2): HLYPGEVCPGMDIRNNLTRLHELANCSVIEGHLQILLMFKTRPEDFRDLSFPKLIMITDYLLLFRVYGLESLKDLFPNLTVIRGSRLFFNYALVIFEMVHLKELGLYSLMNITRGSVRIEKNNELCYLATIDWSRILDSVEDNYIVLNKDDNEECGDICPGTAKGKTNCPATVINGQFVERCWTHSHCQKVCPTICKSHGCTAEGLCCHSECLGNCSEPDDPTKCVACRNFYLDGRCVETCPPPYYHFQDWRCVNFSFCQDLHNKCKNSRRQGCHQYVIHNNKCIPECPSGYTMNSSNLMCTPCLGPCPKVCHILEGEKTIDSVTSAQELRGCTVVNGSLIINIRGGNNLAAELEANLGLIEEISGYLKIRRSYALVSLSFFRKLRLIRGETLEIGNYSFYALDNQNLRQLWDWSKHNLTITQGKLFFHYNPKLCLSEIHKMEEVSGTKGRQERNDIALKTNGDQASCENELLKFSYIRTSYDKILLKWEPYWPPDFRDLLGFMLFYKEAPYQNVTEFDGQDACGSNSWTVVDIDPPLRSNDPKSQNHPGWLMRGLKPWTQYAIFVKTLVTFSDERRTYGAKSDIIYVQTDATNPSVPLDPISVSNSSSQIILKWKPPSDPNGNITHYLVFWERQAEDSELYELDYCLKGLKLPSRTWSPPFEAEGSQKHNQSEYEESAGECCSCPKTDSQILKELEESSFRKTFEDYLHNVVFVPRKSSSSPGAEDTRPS
T1 sequence (chain, as listed by the source, chain 2 of 2): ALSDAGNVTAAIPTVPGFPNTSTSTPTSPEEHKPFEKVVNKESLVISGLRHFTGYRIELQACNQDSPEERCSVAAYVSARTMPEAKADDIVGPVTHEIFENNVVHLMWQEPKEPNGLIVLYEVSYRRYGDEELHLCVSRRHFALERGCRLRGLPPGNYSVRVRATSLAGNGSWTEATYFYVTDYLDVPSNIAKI

[8] = system: Human insulin receptor ectodomain (HIR) (Homo sapiens), P06213-2; experiment: MST; conditions: IB: PBS (1.5 mM KH2PO4, 8.1 mM Na2HPO4, 2.7 mM KCl, 137 mM NaCl) + 5 mM MgCl2, pH 7.4, MST +0.1% Pluronic F-127, 25 C, SPR 25 C, FNBA and BLI r.t.
[9] = biological target: Human IGF-1R ectodomain (Homo sapiens) (UniProt P08069+P08069); experiment: MST; conditions: DNA backbone; 7-deaza-7-(indolyl-ethyl)-dA (dAAIn) at 27,28,32,33,35,39,48,51; 5-(phenyl-ethynyl)-dU (dUEPh) at 24,25,26,31,40,42,44,46,49,52,54; PBS (1.5 mM KH2PO4, 8.1 mM Na2HPO4, 2.7 mM KCl, 137 mM NaCl) with 5 mM MgCl2, pH 7.4; MST with 0.1% Pluronic F-127 at 25 C; FNBA at room temperature; high values mean tight binding
[10] = biological target: T2, Cat insulin receptor ectodomain (CIR) (cat) (UniProt A0ABI7YJR5+A0ABI7YJR5); experiment: MST; conditions: DNA backbone; 7-deaza-7-(indolyl-ethyl)-dA (dAAIn) at 27,28,32,33,35,39,48,51; 5-(phenyl-ethynyl)-dU (dUEPh) at 24,25,26,31,40,42,44,46,49,52,54; PBS (1.5 mM KH2PO4, 8.1 mM Na2HPO4, 2.7 mM KCl, 137 mM NaCl) with 5 mM MgCl2, pH 7.4; MST with 0.1% Pluronic F-127 at 25 C; FNBA at room temperature; high values mean tight binding
T2 sequence (chain, as listed by the source, chain 1 of 2): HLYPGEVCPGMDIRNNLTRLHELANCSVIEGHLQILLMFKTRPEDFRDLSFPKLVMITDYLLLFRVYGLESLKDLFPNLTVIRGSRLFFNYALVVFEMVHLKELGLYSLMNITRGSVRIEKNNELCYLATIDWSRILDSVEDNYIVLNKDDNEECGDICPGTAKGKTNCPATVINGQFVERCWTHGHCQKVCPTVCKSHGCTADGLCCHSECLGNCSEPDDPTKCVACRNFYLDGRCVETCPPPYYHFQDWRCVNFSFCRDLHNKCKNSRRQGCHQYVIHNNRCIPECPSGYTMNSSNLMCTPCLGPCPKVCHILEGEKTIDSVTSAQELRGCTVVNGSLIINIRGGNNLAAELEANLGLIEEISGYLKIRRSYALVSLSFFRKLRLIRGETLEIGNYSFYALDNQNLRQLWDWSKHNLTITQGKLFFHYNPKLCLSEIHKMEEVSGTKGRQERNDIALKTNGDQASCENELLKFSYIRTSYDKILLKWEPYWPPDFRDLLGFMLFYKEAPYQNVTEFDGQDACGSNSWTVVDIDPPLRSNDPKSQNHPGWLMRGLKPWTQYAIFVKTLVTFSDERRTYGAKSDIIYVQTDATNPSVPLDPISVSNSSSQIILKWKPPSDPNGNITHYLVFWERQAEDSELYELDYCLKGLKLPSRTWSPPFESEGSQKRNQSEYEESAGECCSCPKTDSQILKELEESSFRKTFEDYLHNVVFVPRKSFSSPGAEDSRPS
T2 sequence (chain, as listed by the source, chain 2 of 2): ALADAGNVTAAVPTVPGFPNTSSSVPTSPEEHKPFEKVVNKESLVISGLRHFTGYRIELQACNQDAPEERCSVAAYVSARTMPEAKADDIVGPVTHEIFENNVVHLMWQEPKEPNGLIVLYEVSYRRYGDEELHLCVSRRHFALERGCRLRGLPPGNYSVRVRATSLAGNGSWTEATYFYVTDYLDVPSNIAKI

[11] = system: Human insulin receptor isoform A, native (IM-9 cells) (Homo sapiens), P06213-2+P06213-2; experiment: competition with 125I-insulin; conditions: after primer nt 1-20 every U = rigidly linked phenyl-dU and every A = flexibly linked indole-dA (nucleotides 1,2); DNA backbone; IB: PBS (1.5 mM KH2PO4, 8.1 mM Na2HPO4, 2.7 mM KCl, 137 mM NaCl) + 5 mM MgCl2, pH 7.4; MST +0.1% Pluronic F-127, 25 C; SPR 25 C; FNBA and BLI r.t.
Sequence of Human insulin receptor isoform A, native (IM-9 cells) (Homo sapiens), P06213-2+P06213-2 (P06213 other isoform, or with tags, fused parts or gaps, chain 1 of 2): as the sequence (P06213 other isoform, or with tags, fused parts or gaps, chain 1 of 2) above
Sequence of Human insulin receptor isoform A, native (IM-9 cells) (Homo sapiens), P06213-2+P06213-2 (P06213 763-1382, chain 2 of 2): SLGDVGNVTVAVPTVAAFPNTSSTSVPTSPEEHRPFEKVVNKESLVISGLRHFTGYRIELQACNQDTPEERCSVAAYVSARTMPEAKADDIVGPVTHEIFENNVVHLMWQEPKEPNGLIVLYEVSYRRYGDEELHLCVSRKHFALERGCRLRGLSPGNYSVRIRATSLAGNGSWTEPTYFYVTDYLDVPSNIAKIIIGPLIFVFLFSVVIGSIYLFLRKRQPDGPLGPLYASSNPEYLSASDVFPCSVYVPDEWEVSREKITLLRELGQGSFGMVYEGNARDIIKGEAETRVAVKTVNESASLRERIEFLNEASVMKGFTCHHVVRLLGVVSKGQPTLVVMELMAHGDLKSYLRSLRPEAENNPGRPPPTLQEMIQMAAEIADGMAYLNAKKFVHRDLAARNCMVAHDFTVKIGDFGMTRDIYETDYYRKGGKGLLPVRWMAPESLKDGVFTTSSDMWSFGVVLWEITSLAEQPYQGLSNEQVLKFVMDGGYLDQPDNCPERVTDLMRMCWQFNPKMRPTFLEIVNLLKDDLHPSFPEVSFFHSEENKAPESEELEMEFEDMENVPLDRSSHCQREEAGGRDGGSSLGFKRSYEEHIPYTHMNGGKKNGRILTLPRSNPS

[12] = biological target: T1, Dog insulin receptor ectodomain (DIR) (dog); experiment: ELONA; conditions: DNA backbone; 7-deaza-7-(indolyl-ethyl)-dA (dAAIn) at 27,28,32,33,35,39,48,51; 5-(phenyl-ethynyl)-dU (dUEPh) at 24,25,26,31,40,42,44,46,49,52,54; PBS (1.5 mM KH2PO4, 8.1 mM Na2HPO4, 2.7 mM KCl, 137 mM NaCl) with 5 mM MgCl2, pH 7.4; MST with 0.1% Pluronic F-127 at 25 C; FNBA at room temperature; high values mean tight binding
[13] = biological target: T2, Cat insulin receptor ectodomain (CIR) (cat); experiment: ELONA; conditions: DNA backbone; 7-deaza-7-(indolyl-ethyl)-dA (dAAIn) at 27,28,32,33,35,39,48,51; 5-(phenyl-ethynyl)-dU (dUEPh) at 24,25,26,31,40,42,44,46,49,52,54; PBS (1.5 mM KH2PO4, 8.1 mM Na2HPO4, 2.7 mM KCl, 137 mM NaCl) with 5 mM MgCl2, pH 7.4; MST with 0.1% Pluronic F-127 at 25 C; FNBA at room temperature; high values mean tight binding
[14] = 7-deaza-7-(indolyl-ethynyl)-dA (dAEIn) at 27,28,32,33,35,39,48,51, 5-(phenyl-ethynyl)-dU (dUEPh) at 24,25,26,31,40,42,44,46,49,52,54
[15] = 7-deaza-7-(indolyl-ethynyl)-dA (dAEIn) at 27,28,32,33,35,39,48,51, 5-(phenyl-ethyl)-dU (dUAPh) at 24,25,26,31,40,42,44,46,49,52,54
[16] = 7-deaza-7-(indolyl-ethyl)-dA (dAAIn) at 27,35,36,38,41,44,48,54, 5-(phenyl-ethynyl)-dU (dUEPh) at 21,22,23,32,33,37,40,45,46,50,53
[17] = 7-deaza-7-(indolyl-ethyl)-dA (dAAIn) at 27,28,32,33,35,39,48,51, 5-(phenyl-ethyl)-dU (dUAPh) at 24,25,26,31,40,42,44,46,49,52,54
[18] = 7-deaza-7-(indolyl-ethyl)-dA (dAAIn) at 27,28,32,33,35,39,48,51, 5-(phenyl-ethynyl)-dU (dUEPh) at 24,25,26,31,40,42,44,46,49,52,54
[19] = 7-deaza-7-(phenyl-ethyl)-dA (dAAPh) at 27,28,32,33,35,39,48,51, 5-(phenyl-ethynyl)-dU (dUEPh) at 24,25,26,31,40,42,44,46,49,52,54

Sequence of Insulin receptor (P06213 763-1382): as the sequence (P06213 763-1382, chain 2 of 2) above

**Q.** What does the source list for “CATGACGCTCACTGTATCTCGCGUUUAACGUAACAGCGAUGUCUCUCAUGAUGUC [HIR-6_V2]”?
**A.** binding (delta Fnorm (per mille)) [1, 14]: 1.86; binding signal (a.u. fluorescence) [2, 14]: 644

**Q.** What does the source list for “CATGACGCTCACTGTATCTCGCGUUUAACGUAACAGCGAUGUCUCUCAUGAUGUC [HIR-6_V1]”?
**A.** binding (delta Fnorm (per mille)) [1, 15]: -0.274; binding signal (a.u. fluorescence) [2, 15]: 742

**Q.** With “ACTGCACCTGGCCTTTAACTUUUCGCACGCGUUGAAUACUACCAUUGAGUCGUAG [HIR_SC]” as the substance, how does the binding (delta Fnorm (per mille)) [1, 16] read?
**A.** -1.14

**Q.** And the binding signal (a.u. fluorescence) [2, 16]?
**A.** 266

**Q.** With “CAACTTCTACCGGTCCATGTUUGUGAUGCCGACAGCUAGCAGCAAGUAAACGGUC [DIR-5]” as the substance, how does the pKd [3] read?
**A.** 7.72

**Q.** For “CATGACGCTCACTGTATCTCGCGUUUAACGUAACAGCGAUGUCUCUCAUGAUGUC [HIR-6_V3]”, which binding (delta Fnorm (per mille)) [1, 17] is on record?
**A.** -3.35

**Q.** And the binding signal (a.u. fluorescence) [2, 17]?
**A.** 196

**Q.** With Insulin receptor (from UniProt P06213) as the substance, how does the pKd [4] read?
**A.** 9.52

**Q.** With “CATGACGCTCACTGTATCTCGCGTTTAACGUAACAGCGAUGUCUCUCAUGAUGUC [HIR-6_M1]” as the substance, how does the binding signal (a.u. fluorescence) ([2]; 7-deaza-7-(indolyl-ethyl)-dA (dAAIn) at 32,33,35,39,48,51, 5-(phenyl-ethynyl)-dU (dUEPh) at 31,40,42,44,46,49,52,54) read?
**A.** 205

**Q.** With “CATGACGCTCACTGTATCTCGCGUUUAACGUAACAGCGAUGUCUCUCAUGAUGUC [HIR-6]” as the substance, how does the pKd [5] read?
**A.** 9.86

**Q.** What about the pKd [6] of the same substance?
**A.** 9.51

**Q.** And the binding (delta Fnorm (per mille)) [7]?
**A.** -1.86

**Q.** What about the pKd ([8]; after primer nt 1-20 every U = rigidly linked phenyl-dU and every A = flexibly linked indole-dA (nucleotides 1,2), DNA backbone) of the same substance?
**A.** 8.65

**Q.** What about the binding (delta Fnorm (per mille)) [9] of the same substance?
**A.** 3.56

**Q.** What about the binding (delta Fnorm (per mille)) [1, 18] of the same substance?
**A.** 38.1

**Q.** What about the binding (delta Fnorm (per mille)) [10] of the same substance?
**A.** -0.745

**Q.** What about the pKi [11] of the same substance?
**A.** 7.16

**Q.** What about the binding signal (a.u. fluorescence) [12] of the same substance?
**A.** 272

**Q.** What about the binding signal (a.u. fluorescence) [2, 18] of the same substance?
**A.** 45800 and 39500 and 44800

**Q.** What about the binding signal (a.u. fluorescence) [13] of the same substance?
**A.** 164

**Q.** With “CATGACGCTCACTGTATCTCGCGUUUAACGUAACAGCGAUGUCUCUCAUGAUGUC [HIR-6_V4]” as the substance, how does the binding (delta Fnorm (per mille)) [1, 19] read?
**A.** -1.7

**Q.** And the binding signal (a.u. fluorescence) [2, 19]?
**A.** 195

**Q.** With “CATGACGCTCACTGTATCTCGCCUUUAACGUAAGAGCGAUGUCUCUCAUGAUGUC [HIR-8]” as the substance, how does the pKd ([8]; as HIR-6: phenyl-dU (rigid) and indole-dA (flexible) after nt 20) read?
**A.** 7.93

**Q.** And the binding (delta Fnorm (per mille)) [9]?
**A.** -0.562

**Q.** And the binding (delta Fnorm (per mille)) [1, 18]?
**A.** 24.8

**Q.** What about the binding signal (a.u. fluorescence) [2, 18] of the same substance?
**A.** 34500
